From patent US7595168B2, “Method of screening for substances useful for transdifferentiation of microglia into neurons” (Eisai R&D Management Co., Ltd., priority 2006, dated 2009) come the findings set out here.

The subject of the assay is microglia. Nature of the assay: Action of BMP on transdifferentiation of microglia into neurons; immunocytochemical marker quantification. Type of assay: cell-based, rat. The conditions noted are these: day 5 after enrichment; 100 ng/ml noggin in medium containing 70% FCS, 2 days. How it is done: The cerebral cortex was isolated from newborn Wistar rats aged from 0 to 1 day (obtained from Shimizu Experimental Material Co. Ltd.) and cultured in an Eagle's minimum essential medium (EMEM) supplemented with 10% fetal calf serum (FCS) and […] insulin at 37° C. in an atmosphere of 5% CO2. After 14 to 16 days of incubation, microglia were isolated and prepared by the enriching procedure.
The cells were fixed with 4% paraformaldehyde and then reacted individually with an anti-CD11b antibody ([…], Chemicon International) or an anti-MAP2 antibody ([…], DakoCytomation) as a primary antibody and with Cy2-conjugated goat anti-mouse IgG (H+L) (Jackson ImmunoResearch) or Cy3-conjugated goat anti-rabbit IgG (H+L) (Jackson ImmunoResearch) as a secondary antibody. The CD11b is a marker for microglia and the MAP2 is a marker for neurons. […]
After immunostaining the cells, images (200× magnification) of 8 fields per case were randomly obtained using a fluorescent microscope and MataMorph software (Molecular Devices). The numbers of cells expressing individual markers were counted and the average rates to the total number of cells were used as data. […]
Quantification was carried out in the same manner as in Example 1.

B1: noggin: a BMP inhibitor (N6784), Sigma (protein, UniProt Q13253 28-232, looked up)
Noggin: QHYLHIRPAPSDNLPLVDLIEHPDPIFDPKEKDLNETLLRSLLGGHYDPGFMATSPPEDRPGGGGGAAGGAEDLAELDQLLRQRPSGAMPSEIKGLEFSEGLAQGKKQRLSKKLRRKLQMWLWSQTFCPVLYAWNDLGSRFWPRYVKVGSCFSKRSCSVPEGMVCKPSKSVHLTVLRWRCQRRGGQRCGWIPIQYPIISECKCSC
Consider B1, for which the “effect on transdifferentiation of microglia into neurons by 70% serum” value is given as “this transdifferentiation was suppressed”.
